Reference: patent US20110135672A1 (MEDICAL COLLEGE OF GEORGIA RESEARCH INSTITUTE INC GEORGIA, published 2011)

Molecular target: T1, ILT4 receptor on dendritic cells of ILT4 transgenic mice (UniProt Q8N423 22-597, limits assumed)
T1 construct: whole, on cells; also called LILRB2; CD85d
Assay: immunoprecipitation with anti-ILT4 antibody, immunoblot with anti-Csk antibody
Experimental: The pellets from 5×10⁶ untreated DCs and DCs treated with HLA-G ligands and LPS were lysed in 1 ml RIPA buffer and precleared several times with Sepharose-coupled protein A (50% wt/vol slurry). Proteins were immunoprecipitated with saturating amounts of anti-ILT4 mAb and protein G Sepharose (Amersham Biosciences). Immunoprecipitation experiments were performed using several ILT4-specific antibodies, including polyclonal anti-ILT4 (C-12), anti-ILT4 (N-14), anti-ILT4 (P-14), anti-ILT (H-300), and anti-ILT4 (42D1) mAb (all from Santa Cruz Biotechnology, Santa Cruz, Calif.). […] The immunoblot was reprobed with anti-SHP-1 and anti-SHP-2 antibodies (both Upstate), and anti-Csk antibody (Santa Cruz Biotechnology). Signals were developed using the enhanced chemoluminescence (ECL) system (Amersham Biosciences). In some cases, densitometric scans of bands were obtained to determine the extent of ILT4-mediated signal inhibition.

T1 sequence (Q8N423 22-597 limits assumed): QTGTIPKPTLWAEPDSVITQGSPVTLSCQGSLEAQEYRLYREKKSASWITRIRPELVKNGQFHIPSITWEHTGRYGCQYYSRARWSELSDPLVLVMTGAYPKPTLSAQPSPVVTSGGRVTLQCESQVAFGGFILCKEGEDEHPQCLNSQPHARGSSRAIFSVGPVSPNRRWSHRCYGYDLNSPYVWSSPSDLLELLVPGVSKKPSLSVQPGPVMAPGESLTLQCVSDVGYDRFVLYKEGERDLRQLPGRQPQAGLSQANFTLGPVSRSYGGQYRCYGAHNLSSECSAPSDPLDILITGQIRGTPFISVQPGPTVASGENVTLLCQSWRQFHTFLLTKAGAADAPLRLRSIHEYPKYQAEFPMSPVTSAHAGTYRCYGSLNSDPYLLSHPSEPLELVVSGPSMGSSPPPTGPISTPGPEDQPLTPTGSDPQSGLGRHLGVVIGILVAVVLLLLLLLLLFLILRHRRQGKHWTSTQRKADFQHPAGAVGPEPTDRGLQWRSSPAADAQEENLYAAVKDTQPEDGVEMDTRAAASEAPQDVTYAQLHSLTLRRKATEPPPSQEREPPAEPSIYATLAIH

B1: C-terminal Src kinase (Csk) (enzyme, mouse, UniProt P41241 2-450, looked up)
chain: SAIQAAWPSGTECIAKYNFHGTAEQDLPFCKGDVLTIVAVTKDPNWYKAKNKVGREGIIPANYVQKREGVKAGTKLSLMPWFHGKITREQAERLLYPPETGLFLVRESTNYPGDYTLCVSCEGKVEHYRIMYHASKLSIDEEVYFENLMQLVEHYTTDADGLCTRLIKPKVMEGTVAAQDEFYRSGWALNMKELKLLQTIGKGEFGDVMLGDYRGNKVAVKCIKNDATAQAFLAEASVMTQLRHSNLVQLLGVIVEEKGGLYIVTEYMAKGSLVDYLRSRGRSVLGGDCLLKFSLDVCEAMEYLEGNNFVHRDLAARNVLVSEDNVAKVSDFGLTKEASSTQDTGKLPVKWTAPEALREKKFSTKSDVWSFGILLWEIYSFGRVPYPRIPLKDVVPRVEKGYKMDAPDGCPPAVYEVMKNCWHLDAATRPTFLQLREQLEHIKTHELHL
binding result: no binding
